Patent publication US20230295310A1 (ABCELLERA BIOLOGICS, published 2023)
Positions count from the first letter of the chain named. One block for each binder: values may come before it.

Experiments:
[1] = target: T1, human CD3 expressed on cells (Jurkat cells; human primary T cells) (human, UniProt P07766 23-207; P04234 22-171; P09693 23-182); experiment: flow cytometry, Jurkat cells
T1 construct: whole, on cells
Experimental: (§1) Purified antibodies were confirmed to bind CD3 expressed on cells using the CytoFLEX S or LX flow cytometers (Beckman Coulter). Antibodies were diluted to 25 nM in FACS buffer (PBS+2% FBS) and were incubated with CD3-expressing cells for 30 minutes at 4° C. […] The median fluorescence intensity of the binding signal for each antibody was normalized to the isotype control to obtain a fold over isotype value. An antibody with a fold over isotype (FOI) of ≥10 was considered to be positive for binding.

[2] = target: T2, cynomolgus monkey CD3 expressed on cyno primary T cells (cynomolgus monkey, UniProt Q95LI5 22-198; Q95LI8 22-171; Q95LI7 23-181); experiment: flow cytometry, cyno primary T cells
T2 construct: whole, on cells; CD3 complex on purified cynomolgus monkey CD3 pan T cells; also called cyno CD3
T2 sequence (Q95LI5 22-198, chain 1 of 3): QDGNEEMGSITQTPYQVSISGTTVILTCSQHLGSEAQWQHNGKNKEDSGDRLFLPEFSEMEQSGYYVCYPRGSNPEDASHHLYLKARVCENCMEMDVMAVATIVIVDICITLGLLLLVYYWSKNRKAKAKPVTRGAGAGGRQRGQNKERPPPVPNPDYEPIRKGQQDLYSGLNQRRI
T2 sequence (Q95LI8 22-171, chain 2 of 3): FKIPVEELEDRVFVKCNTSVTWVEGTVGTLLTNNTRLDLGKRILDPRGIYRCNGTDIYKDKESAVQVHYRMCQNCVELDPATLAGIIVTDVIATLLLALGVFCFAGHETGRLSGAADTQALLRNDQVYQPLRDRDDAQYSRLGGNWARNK
T2 sequence (Q95LI7 23-181, chain 3 of 3): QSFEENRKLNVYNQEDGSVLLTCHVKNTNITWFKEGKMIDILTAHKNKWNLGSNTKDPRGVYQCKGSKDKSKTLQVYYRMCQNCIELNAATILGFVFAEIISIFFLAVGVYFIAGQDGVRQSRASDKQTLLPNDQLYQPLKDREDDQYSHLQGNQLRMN
Procedure, shortened: (§2)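 Cells expressing CD3 were exposed to each antibody diluted to 25 nM for 30 minutes at 4° C, then analysed by flow cytometry. The median fluorescence signal was expressed relative to an isotype control, and a value of at least 10 indicated binding.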

[3] = target: T3, human CD3 expressed on cells (human, UniProt P07766 23-207; P04234 22-171; P09693 23-182); experiment: flow cytometry, 25 nM
T3 construct: whole, on cells; CD3 complex on Jurkat cells and on human primary T cells
T3 sequence (P07766 23-207, chain 1 of 3): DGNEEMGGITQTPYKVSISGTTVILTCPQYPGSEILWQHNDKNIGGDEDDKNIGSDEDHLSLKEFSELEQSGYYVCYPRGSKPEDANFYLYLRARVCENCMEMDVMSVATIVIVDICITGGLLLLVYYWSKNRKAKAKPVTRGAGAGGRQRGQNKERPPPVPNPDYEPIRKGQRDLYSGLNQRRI
T3 sequence (P04234 22-171, chain 2 of 3): as the sequence (Q95LI8 22-171, chain 2 of 3) above, with V5I, K15N, V20I, T32S, N33D, N34I, A64T, N74S, L83V, R141H counted along it
T3 sequence (P09693 23-182, chain 3 of 3): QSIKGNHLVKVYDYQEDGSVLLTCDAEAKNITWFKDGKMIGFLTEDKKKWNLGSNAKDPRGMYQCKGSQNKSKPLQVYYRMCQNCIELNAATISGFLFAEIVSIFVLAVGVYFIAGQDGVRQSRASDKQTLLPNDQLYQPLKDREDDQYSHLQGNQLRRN
Procedure, shortened: as §2

[4] = target: T4, cynomolgus monkey CD3 expressed on primary T cells (cynomolgus monkey, UniProt Q95LI5 22-198; Q95LI8 22-171; Q95LI7 23-181); experiment: flow cytometry, 25 nM, cyno primary T cells
T4 construct: whole, on cells; CD3 complex on purified cynomolgus monkey T cells; also called cyno CD3
T4 sequence (Q95LI5 22-198, chain 1 of 3): as the sequence (Q95LI5 22-198, chain 1 of 3) above
T4 sequence (Q95LI8 22-171, chain 2 of 3): as the sequence (Q95LI8 22-171, chain 2 of 3) above
T4 sequence (Q95LI7 23-181, chain 3 of 3): as the sequence (Q95LI7 23-181, chain 3 of 3) above
Procedure, shortened: as §2

[5] = target: T3, human CD3 expressed on cells; experiment: flow cytometry, 25 nM, Jurkat cells (human primary T cells in c4 also <10)
Experimental: as §1

T1 sequence (P07766 23-207, chain 1 of 3): as the sequence (P07766 23-207, chain 1 of 3) above
T1 sequence (P04234 22-171, chain 2 of 3): as the sequence (Q95LI8 22-171, chain 2 of 3) above, with V5I, K15N, V20I, T32S, N33D, N34I, A64T, N74S, L83V, R141H counted along it
T1 sequence (P09693 23-182, chain 3 of 3): as the sequence (P09693 23-182, chain 3 of 3) above

B1: mAb 274 (antibody, V domains shown)
VH: QVQLVQSGAEVKKPGASVRVSCKASGYTFTGYYMHWVRQAPGQGLEWMGWIYPNSGRTNYAQKFQGRVTMTRDTSISTAYMELTRLISDDTAVYYCARLWDLYFDYWGQGTLVTVSS
VL: DIQLTQSPSFLSASVGDRVTITCRASQGISSYLAWYQQKPGKAPKLLIYAASTLQSGVPSRFSGSGSGTEFTLTISSLQPEDFATYYCQQLNSYPWTFGQGTKVEIK
notes: VH/VL only
binding result [1]: no binding (tested: FOI <10 (FOI >=10 = positive); 25 nM) | binding result [2]: no binding (tested: FOI <10 (FOI >=10 = positive); 25 nM)

B2: mAb 277 (antibody, V domains shown)
VH: QVQLVQSGAAMKKPGASVKVSCKASGSTFTGYYLHWVRQAPGQGLEWMGWIYLNSGRTKYAQKFQGRVTMTRDTSINTAHMELSRLTFDDTAVYYCVRVLELIFDYWGQGTLVTVSS
VL: B1 VL
notes: VH/VL only
binding result [1]: no binding (tested: FOI <10 (FOI >=10 = positive); 25 nM) | binding result [2]: no binding (tested: FOI <10 (FOI >=10 = positive); 25 nM)

B3: mAb 185 (antibody, V domains shown)
VH: QVQLVQSGSEVKKPGASVRVSCKASGYIFTGYHIHWVRQAPGQGLEWMGWINPKSGRTSYAQNFQARVTMTRDTSINTIHMELSRLRSDDTAIYYCMRVGEQLLFDFWGQGTLVTVSS
VL: not shown
notes: VH/VL only
binding result [1]: no binding (tested: FOI <10 (FOI >=10 = positive); 25 nM) | binding result [2]: no binding (tested: FOI <10 (FOI >=10 = positive); 25 nM)

Human primary T Cell Binding (FOI) [3]: 1.44 FOI | binding result [4]: no binding (tested: FOI >=10 = positive) | binding result [5]: no binding (tested: FOI >=10 = positive)
B4: mAb 148 (antibody, V domains shown)
VH: QVQLVQSGAEVKKPGASVKVSCKASGYTFTAYHTHWVRQAPGQGLEWMGWIYPKSGRTTYTQKFQGRVTMTRDTSISTVYMELSRLKSDDTAVYYCARVGALLFDYWGQGTLVTVSS
VL: EIVLTQSPATLSLSPGERATLSCRASQSVSSYLAWYQQKPGQAPRLLIYDASNRATGIPARFSGSGSGTDFTLTISSLEPEDFAVYYCQQRSNWPFTFGPGTKVDIK

Human primary T Cell Binding (FOI) [3]: 1.36 FOI | binding result [4]: no binding (tested: FOI >=10 = positive) | binding result [5]: no binding (tested: FOI >=10 = positive)
B5: mAb 151 (antibody, V domains shown)
VH: B4 VH
VL: DIQMTQSPSSLSASVGDRVTITCRASQGIRNDLGWYQQKPGKAPKCLIYAASNLQSGVPSRFSGSGSGTEFTLTISSLQPEDFATYYCLQHNSYPRTFGQGTKVDVK

Human primary T Cell Binding (FOI) [3]: 1.45 FOI | binding result [4]: no binding (tested: FOI >=10 = positive) | binding result [5]: no binding (tested: FOI >=10 = positive)
B6: mAb 149 (antibody, V domains shown)
VH: B4 VH
VL: not shown

B7: mAb 275 (antibody, V domains shown)
VH: QVQLVQSGSELKKPGASVKVSCKASGYTFTKYAMNWVRQAPGQGLEWMGWINTNTGNPTYAQGFTGRFVFSLDASVTTAYLQISSLKAEDTAVYYCAREGHYDFWGGFYYFDYWGQGTLVTVSS
VL: B4 VL with V3M, A19G, L47V, A51V, T72I, S76G, F96L, P100G, D105E
notes: VH/VL only
binding result [1]: no binding (tested: FOI <10 (FOI >=10 = positive); 25 nM) | binding result [2]: no binding (tested: FOI <10 (FOI >=10 = positive); 25 nM)

Human primary T Cell Binding (FOI) [3]: 1.68 FOI | binding result [4]: no binding (tested: FOI >=10 = positive) | binding result [5]: no binding (tested: FOI >=10 = positive)
B8: mAb 150 (antibody, V domains shown)
VH: B4 VH
VL: B4 VL with F96L, P100G, D105E

Human primary T Cell Binding (FOI) [3]: 1.48 FOI | binding result [4]: no binding (tested: FOI >=10 = positive) | binding result [5]: no binding (tested: FOI >=10 = positive)
B9: mAb 168 (antibody, V domains shown)
VH: EVQLVQSGAEVKKPGESLKISCKGSGYIFTSYWIGWVRQMPGKGLEWMGIIYPGDSDTRYSPSFQGQVTISADKSISTAYLQWSSLKASDTAMYYCARRNYYYYMDVWGKGTTVTVSS
VL: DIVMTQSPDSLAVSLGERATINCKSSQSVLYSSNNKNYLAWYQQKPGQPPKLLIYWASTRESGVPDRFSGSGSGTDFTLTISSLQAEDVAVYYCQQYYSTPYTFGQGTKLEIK

B10: mAb 183 (antibody, V domains shown)
VH: QVQLVQSGAEVKKPGASVRVSCKSSGYTFTGYYIHWVRQAPGQGLEWMGWINPKSGRTSYAEKFQGSITMTRDTSINTAYMELTKLRSDDTAVYYCERMGELLLFDYWGQGTLVTVSS
VL: not shown
notes: VH/VL only
binding result [1]: no binding (tested: FOI <10 (FOI >=10 = positive); 25 nM) | binding result [2]: no binding (tested: FOI <10 (FOI >=10 = positive); 25 nM)

B11: mAb 278 (antibody, V domains shown)
VH: B2 VH with N77S, V97A
VL: not shown
binding result [1]: no binding (tested: FOI <10 (FOI >=10 = positive); 25 nM) | binding result [2]: no binding (tested: FOI <10 (FOI >=10 = positive); 25 nM)

B12: mAb 182 (antibody, V domains shown)
VH: QVQLVQSGAGMKKPGASVRVSCKASGYNFIDYHIHWVRQAPGQGLEWMGWINPKSGRTMSAQKFQGRVTMTRDTSITAAYMELNRLRSDDSAIYYCARVTQLVFDHWGQGTLVTVSL
VL: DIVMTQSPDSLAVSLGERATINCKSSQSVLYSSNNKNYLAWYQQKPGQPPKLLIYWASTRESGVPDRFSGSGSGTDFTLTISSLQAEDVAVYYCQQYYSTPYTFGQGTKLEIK
notes: VH/VL only
binding result [1]: no binding (tested: FOI <10 (FOI >=10 = positive); 25 nM) | binding result [2]: no binding (tested: FOI <10 (FOI >=10 = positive); 25 nM)

B13: mAb 268 (antibody, V domains shown)
VH: QVQLVQSGSEVKKPGASVKVSCKASGYTFTGYYIHWVRQAPGQGLEWMGWINPNSGRTNYAQNFQGRVTMTRDTSITTAHMELTRLTSDDTAVYYCARLELLVFDYWGQGTLVTVSS
VL: DIQMTQSPSSLSASVGDRVTITCRASQTIYNYLNWYQQKPGKAPQVLIYAASNLQSGVPSIFSGSGSGTDFTLTITNLQPEDFATYYCQQTYSIPFTFGGGTKVEIK
notes: VH/VL only
binding result [1]: no binding (tested: FOI <10 (FOI >=10 = positive); 25 nM) | binding result [2]: no binding (tested: FOI <10 (FOI >=10 = positive); 25 nM)

B14: mAb 269 (antibody, V domains shown)
VH: B13 VH
VL: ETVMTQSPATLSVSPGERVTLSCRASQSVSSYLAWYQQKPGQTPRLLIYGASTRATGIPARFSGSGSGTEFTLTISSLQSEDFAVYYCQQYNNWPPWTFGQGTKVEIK
notes: VH/VL only
binding result [1]: no binding (tested: FOI <10 (FOI >=10 = positive); 25 nM) | binding result [2]: no binding (tested: FOI <10 (FOI >=10 = positive); 25 nM)

B15: mAb 184 (antibody, V domains shown)
VH: QVQLVESGGGVVQPGRSLRLSCAASGFTFSDYGMHWVRQAPGKGLEWVSVIWSDGLNKYYKDSVKGRFTISRDNSKNTLYLQMNSLRAADTAVYYCARLYSGSHYHYFMDVWGKGTSVTVSS
VL: DILLTQSPSFLSASVGDRVTITCRASQDISSSLAWYQQKPKKAPDLLIYTASTLQSGVPSRFSGRGSGTEFTLTISNLQPEDFATYYCQQLKNYPITFGQGTRLEIK
notes: VH/VL only
binding result [1]: no binding (tested: FOI <10 (FOI >=10 = positive); 25 nM) | binding result [2]: no binding (tested: FOI <10 (FOI >=10 = positive); 25 nM)

B16: mAb 253 (antibody, V domains shown)
VH: QVTLKESGPVLVKPTETLTLTCTVSGFSLSNARMGVSWIRQPPGKALEWLTLIFSIDEKSYSTSLKSRLTISQDTSKSQVVLTVTNMDPVDTVTYFCERIETGPYYYYYYMDVWGKGTTVTVSS
VL: not shown
notes: VH/VL only
binding result [1]: no binding (tested: FOI <10 (FOI >=10 = positive); 25 nM) | binding result [2]: no binding (tested: FOI <10 (FOI >=10 = positive); 25 nM)

B17: mAb 254 (antibody, V domains shown)
VH: B16 VH with A32S, I39L, T51I, L52F, V84M
VL: not shown
notes: VH/VL only
binding result [1]: no binding (tested: FOI <10 (FOI >=10 = positive); 25 nM) | binding result [2]: no binding (tested: FOI <10 (FOI >=10 = positive); 25 nM)

B18: mAb 181 (antibody, V domains shown)
VH: QVQLVQSGADMKKPGASVKVSCKASGYTFTDYHIHWVRQAPGQGLEWMGWINPKSGRTMFAQNFQDRVTMTRDTSISTAYMELNRLRSDDSAVYYCARVTQLVFDHWGQGTLVTVSF
VL: AIQMTQSPSSLSASVGDRVTITCRASQGIRNDLGWYQQKPGKAPKLLIYAASSLQSGVPSRFSGSGSGTDFTLTISSLQPEDFATYYCLQDYNYMYTFGQGTKLEIK
notes: VH/VL only
binding result [1]: no binding (tested: FOI <10 (FOI >=10 = positive); 25 nM) | binding result [2]: no binding (tested: FOI <10 (FOI >=10 = positive); 25 nM)

B19: mAb 187 (antibody, V domains shown)
VH: EVQLLESGGGLVQPGGSLRLSCAASGFTFSSYAMNWVRQAPGKGLEWVSAISSSGGRTYYADSVKGRFTISRDNSKNTLYLQMNSLRAEDTAVYYCAKDSTSHPYMDVWGKGTTVTVSS
VL: B18 VL with K39Q, A50D, D70V, Y87F, M95P, Y96F, Q100P, L104V, E105D
notes: VH/VL only
binding result [1]: no binding (tested: FOI <10 (FOI >=10 = positive); 25 nM) | binding result [2]: no binding (tested: FOI <10 (FOI >=10 = positive); 25 nM)
